According to patent US11998609B2, “Self-assembling antiviral prodrugs” (priority 2021, dated 2024):
Residues, ends and D or L forms follow the SMILES beside them. *: point of attachment. X1 = C[C@H](Cn1cnc2c(N)ncnc21)OCP(=O)(O)OCCS*; Palmitoyl = CCCCCCCCCCCCCCCC(=O)*

How the values were obtained:
[1] = In vivo pharmacokinetics and biodistribution
Protocol: Samples were dried under a N2 stream, reconstituted in 100 μl of 80% v/v LC-MS grade MeOH/H2O. 10 μl of the sample solution was injected into Waters Acquity/Xevo-G2 UPLC/MS system (Milford, MA) for analysis.
For tissue analysis, an optimized amount of tissue sample was processed using a tissue homogenizer in 5 volumes of 90% v/v LC/MS grade MeCN/H2O. 100 μL Tissue homogenate was mixed with 90 μL of 90% v/v LC/MS grade MeCN/H2O, 10 μL of LC-MS-grade water, and 10 μL 500 ng/ml Emtricitabine solution (as IS). After extraction, 10 μl of the sample solution was injected into Waters Acquity/Xevo-G2 UPLC/MS system (Milford, MA) for analysis.

HBV = assay type: cell-based, hepatitis B virus; details: HepAD38 cells, qPCR of cellular supernatant; FIG. 5 legend; read-out: IC50, reduction of HBV production
Protocol: Anti-HBV efficacy was evaluated on HepAD38 cells, using an adaptation of a procedure described in Ladner, Antimicrob. Agents Chemother. 41: 1715-20, 1997, incorporated herein by reference. HepAD38 cells were plated on collagen coated 96-well flat-bottomed plates at a density of 6×10^4 cells/well and grown for 3 days in the presence of 200 μL of Ham's F-12K (Kaighn's) Medium supplemented with 10% fetal bovine serum (FBS), 1% of an antibiotic solution (penicillin and streptomycin), and 0.3 mg/mL tetracycline at 37° C. in 5% carbon dioxide. On day zero the cells were washed with PBS and treated with tetracycline-free F-12K medium containing TFV, TFV-PA2, or TFV-PA3 (180 μL of medium supplemented with 20 μL of 10× concentration therapeutic solution to give 200 μL of medium at the final therapeutic concentration). Each therapeutic was screened at a minimum of five concentrations in quadruplicate. Water treated cells (180 μL of medium supplemented with 20 μL of H2O) were used as the negative control. On day three the medium was removed and replaced with 200 μL of fresh tetracycline-free medium containing the test compound at the appropriate concentration. […] HBV DNA was quantified by qPCR, using Integrated DNA Technologies PrimeTime Gene Expression Master Mix (Integrated DNA Technologies, Coralville, IA) and HBV TaqMan primer/probe (20×, Assay ID Vi03453405_s1, ThermoFisher Scientific, Pittsburgh, PA). A serial dilution of gBlocks Gene Fragments (Integrated DNA Technologies, Coralville, IA) of known HBV copy number was used as the standard for the absolute quantification of DNA copy number from cycle threshold values. […] Percent HBV production for each therapeutic concentration was determined based on average number of copies of HBV DNA produced by water treated cells and averaged between the three biological repeats of the assay before being plotted against concentration. […]

[2] = cited from earlier work
[3] = Stability of TFV-PAs and redox triggered release of free TFV (with/without DTT); assay type: in vitro ADME; details: 37° C.; for prodrug stability without DTT: 100 μM in 1× PBS, absence of DTT; for TFV released: 100 μM, 10 mM DTT, 1× PBS
Protocol: Stability of the TFV-PAs and redox triggered release of free TFV was assessed by aging TFV-PA solutions in the presence and absence of 10 mM dithiothreitol (DTT). 200 µM solutions of TFV-PA2 and TFV-PA3 solutions were prepared using deionized H2O and allowed to age at RT for 24 hours. A 20 mM solution of DTT was prepared by diluting a stock 1 M DTT solution with 2× phosphate buffered solution (PBS). 500 μL of 2× PBS was added to an equal volume of each TFV-PA solution to give the DTT negative samples with a final TFV-PA concentration of 100 μM in 1× PBS. 500 μL of 20 mM DTT solution was added to an equal volume of each TFV-PA solution to give the DTT positive samples with a final TFV-PA concentration of 100 μM and 10 mM DTT in 1× PBS. Each experimental condition was prepared in triplicate. Solutions were allowed to age at 37° C. and 50 μL samples were collected at predetermined time points (0, 1, 2, 4, 8, 12, 24, 48, and 72 h), flash frozen in liquid nitrogen, and then stored in a −20° C. freezer. 2 μL of hydrochloric acid was added to the DTT positive samples upon collection to quench the reaction. Samples were thawed and immediately analyzed using the Agilent Infinity II RP-HPLC. The relative proportions of remaining TFV-PA were determined using the ratio of the AUC of the TFV-PA peak in the 260 nm chromatograph to that of the 0 hour samples. For select samples, 1 μL of solution was diluted in 900 μL MeOH and 100 μL 0.1% aq. formic acid and subjected to ESI MS to identify the molecules in the sample.

[4] = In vitro prodrug release from TFV-PA hydrogels; assay type: physicochemical; details: day 30, in vitro
Protocol: To study gel release, 5 mM and 10 mM solutions of TFV-PA2 and TFV-PA3 were prepared using deionized water and allowed to age at RT for 48 hours. 45 μL of each solution was aliquoted into three 0.5 mL microcentrifuge tubes and 5 μL of 10× PBS was added to each vial to form a hydrogel with a final concentration of 1× PBS. Gels were allowed to set for 5-10 minutes before 60 μL of 1× PBS was added to the surface as the release media. The vials were then allowed to age at 37° C. Every 2 days, 50 μL of gel release supernatant was collected and replaced with an equal volume of fresh 1× PBS. Samples were frozen and stored at −20° C. for future analysis by RP-HPLC. On select days, 5 μL of release supernatant was collected 24 hours after supernatant exchange and used to prepare a negatively stained transmission electron microscope grid for analysis with the Talos transmission electron microscope. The grid was prepared as described above, except the sample was blotted with 5 μL deionized water (wicked immediately) after the sample was wicked away to remove excess salts from the PBS. Once the release experiment was complete, samples were thawed and 1-2 mg of TCEP was added to 25 μL sample solution and an equal volume of acetonitrile, then vortexed and sonicated at 37° C. for 10 minutes to ensure complete cleavage of the TFV moiety from the TFV-PAs. […]

Row | Compound | drug levels after free drug administration ([1]; after three days, mice) | MRT ([1]; male, Balb/cJ, mouse, in vivo, sc, 75 mg/kg) [h] | IC50 (HBV) [µM] | log P [2] | prodrug stability without DTT [3] | TFV released ([3]; after 1 hour) | TFV released ([3]; by 24 hours) | TFV released ([3]; after 4 hours) | initial prodrugs remaining in hydrogel [4]
1 | Nc1ccn([C@@H]2CS[C@H](CO)O2)c(=O)n1 [3TC, 2′,3′-Dideoxy-3′-Thiacytidine] | below detection | 50.4 |  |  |  |  |  |  | 
2 | C[C@H](Cn1cnc2c(N)ncnc21)OCP(=O)(O)O [TFV, tenofovir, reference compound] |  |  | 1.1 | −2.5 |  |  |  |  | 
3 | CCCCCCCCCCCCCCCC(=O)N[C@H](C(=O)N[C@H](C(=O)N[C@@H](CSSCCOP(=O)(O)CO[C@H](C)Cn1cnc2c(N)ncnc21)C(=O)N[C@@H](CCC(=O)O)C(=O)O)C(C)C)C(C)C [TFV-PA2] (Palmitoyl-VVC(X1)E-OH) |  |  | 1.5 |  | stable at 37 °C and in 1× PBS for 3 days | more than 90% | all TFV released |  | 
4 | CCCCCCCCCCCCCCCC(=O)N[C@H](C(=O)N[C@H](C(=O)N[C@H](C(=O)N[C@@H](CSSCCOP(=O)(O)CO[C@H](C)Cn1cnc2c(N)ncnc21)C(=O)N[C@@H](CCC(=O)O)C(=O)O)C(C)C)C(C)C)C(C)C [TFV-PA3] (Palmitoyl-VVVC(X1)E-OH) |  |  | 0.25 |  | stable at 37 °C and in 1× PBS for 3 days |  | all TFV released | more than 70% | more than 80%
